In article PMC4351732 (Structure (London, England : 1993), 2015):

Target: the molecule itself
Assay: crystal structure

B1: human NAPE-hydrolyzing phospholipase D (NAPE-PLD), truncated form Δ47 (D47 to F393) (enzyme, UniProt Q6IQ20 47-393, looked up)
chain: DYRLEEDVTKSKKGKDGRFVNPWPTWKNPSIPNVLRWLIMEKDHSSVPSSKEELDKELPVLKPYFITNPEEAGVREAGLRVTWLGHATVMVEMDELIFLTDPIFSSRASPSQYMGPKRFRRSPCTISELPPIDAVLISHNHYDHLDYNSVIALNERFGNELRWFVPLGLLDWMQKCGCENVIELDWWEENCVPGHDKVTFVFTPSQHWCKRTLMDDNKVLWGSWSVLGPWNRFFFAGDTGYCPAFEEIGKRFGPFDLAAIPIGAYEPRWFMKYQHVDPEEAVRIHTDVQTKKSMAIHWGTFALANEHYLEPPVKLNEALERYGLNAEDFFVLKHGESRYLNNDDENF
  stoichiometry N: 2
